Where two headings read alike, the source gives them in different places.
Legend:
[1] = target: T1, soluble HLA-E-VL9 complex (HLA-E*01:03 heavy chain refolded with b2M and synthetic VL9 peptide) (human)
[2] = target: T1, soluble HLA-E-VL9 complex (HLA-E*01:03 …); test: SPR, antibody immobilized on CM5 chip, soluble HLA-E-VL9 flowed, 1:1 model

Binder	Kd [1] [µM]	Kd [2] [µM]
3H4, murine HLA-E-VL9-specific IgM monoclonal antibody (antibody, V domains shown, also called mAb 3H4; 3H4 IgM) VH: EVQLQESGPELVKPGASVKIPCKASGYTFTDYNMDWVKQSHGKSLEWIGDINPNNGGTIYNQKFKGKATLTVDKSSSTAYMELRSLTSEDTAVYYCARPDYYGSSYGWYFDVWGTGTTVTVSS VL: DIVITQSPSSMYASLGERVTITCKASQDINSYLSWFQQKPGKSPKTLIYRANRLVDGVPSRFSGSGSGQDYSLTISSLEYEDMGIYYCLQYDEFPLTFGAGTKLELK	8.1	–
3H4 as a recombinant human IgG1 (unoptimized, wild-type 3H4 on a human IgG1 backbone, 3H4 Gwt) (antibody, V domains shown, also called 3H4 IgG; wild-type 3H4 IgG) VH: EVQLQESGPELVKPGASVKIPCKASGYTFTDYNMDWVKQSHGKSLEWIGDINPNNGGTIYNQKFKGKATLTVDKSSSTAYMELRSLTSEDTAVYYCARPDYYGSSYGWYFDVWGTGTTVTVSS VL: DIVITQSPSSMYASLGERVTITCKASQDINSYLSWFQQKPGKSPKTLIYRANRLVDGVPSRFSGSGSGQDYSLTISSLEYEDMGIYYCLQYDEFPLTFGAGTKLELK	–	49.8

Source: patent publication EP4388012A1 (dated 2024)
